The chains are these.
B1: Azoarcus group I ribozyme (parent)
chain: GUGCCUUGCGCCGGGAAACCACGCAAGGGAUGGUGUCAAAUUCGGCGAAACCUAAGCGCCCGCCCGGGCGUAUGGCAACGCCGAGCCAAGCUUCGGCGCCUGCGCCGAUGAAGGUGUAGAGACUAGACGGCACCCACCUAAGGCAAACGCUAUGGUGAAGGCAUAGUCCAGGGAGUGGCGAAAGUCACACAAACCGG

In the data set the parent is B1. Kind of data set: reverse-splicing fitness (ratio to wild type); higher = more active; in vitro selection; Mg2+ level not given. The essentials:
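An in vitro group I ribozyme library with randomized positions was T7-transcribed and gel-purified. In triplicate, 10 pmol RNA in EPPS pH 7.5 was reacted with 50 pmoles of a 30-nt RNA substrate for 1 h at 37 °C across several added MgCl2 levels (1–48 mM), then stopped with EDTA. Products were reverse transcribed from a substrate-complementary primer, PCR-amplified and sequenced (HiSeq 4000). Fitness is a variant's read proportion after selection over that before, normalised to wild type.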
GUGCCUUGCGCCGGGAAACCACGCAAGGGAUGGUGUCAAAUUCGGCGAAACCUAAGCGCCCGCCCGGGCGUAUGGCAACGCUGAGCCAAGCUUCGGCGCCUGCGCCGAUGUAGGUGUAGAGACUAGACGGCACCCACCUAAGGCGAACGCUAUGGUGAAGGCAUAGUCAAGGGAGUGGCGAAAGUCACACAAACCGG [C82U A111U A145G C169A]: the reverse-splicing fitness is 0.00999. With GUGCCUUGCGCCGGGAAACCACGCAAGGGAUGGUGUCAAAUUCGGCGAAACCUAAGCGCCCGCCCGGGCGUAUGGCAACGCGGAGCCAAGCUUCGGCGCCUGCGCCGAUGUAGGUGUAGAGACUAGACGGCACCCACCUAAGGCGAACGCUAUGGUGAAGGCAUAGUCCAGGGAGAGGCGAAAGUCACACAAACCGG [C82G A111U A145G U176A] the figure was 0.197.

As for GUGCCUUGCGCCGGGAAACCACGCAAGGGAUGGUGUCAAAUUCGGCGAAACCUAAGCGCCCGCCCGGGCGUAUGGCAACGCGGAGCCAAGCUUCGGCGCCUGCGCCGAUGUAGGUGUAGCGACUAGACGGCACCCACCUAAGGCUAACGUUAUGGUGAAGGCAUAGUCCAGGGAGCGGCGAAAGUCACACAAACCGG [C82G A111U A120C A145U C150U U176C], the reverse-splicing fitness is 0.0247.

Regarding GUGCCUUGCGCCGGGAAACCACGCAAGGGAUGGUGUCAAAUUCGGCGAAACCUAAGCGCCCGCCCGGGCGUAUGGCAACGCGGAGCCAAGCUUCGGCGCCUGCGCCGAUGCAGGUGUAGGGACUAGACGGCACCCACCUAAGGCCAACGAUAUGGUGAAGGCAUAGUCUAGGGAGCGGCGAAAGUCACACAAACCGG [C82G A111C A120G A145C C150A C169U U176C], the reverse-splicing fitness stood at 0.00999. Turning to GUGCCUUGCGCCGGGAAACCACGCAAGGGAUGGUGUCAAAUUCGGCGAAACCUAAGCGCCCGCCCGGGCGUAUGGCAACGCCGAGCCAAGCUUCGGCGCCUGCGCCGAUGCAGGUGUAGUGACUAGACGGCACCCACCUAAGGCAAACGGUAUGGUGAAGGCAUAGUCGAGGGAGAGGCGAAAGUCACACAAACCGG [A111C A120U C150G C169G U176A], the reverse-splicing fitness came out at 0.00481. Consider GUGCCUUGCGCCGGGAAACCACGCAAGGGAUGGUGUCAAAUUCGGCGAAACCUAAGCGCCCGCCCGGGCGUAUGGCAACGCGGAGCCAAGCUUCGGCGCCUGCGCCGAUGUAGGUGUAGGGACUAGACGGCACCCACCUAAGGCAAACGGUAUGGUGAAGGCAUAGUCCAGGGAGUGGCGAAAGUCACACAAACCGG [C82G A111U A120G C150G], for which the reverse-splicing fitness came out at 0.00634.

Turning to GUGCCUUGCGCCGGGAAACCACGCAAGGGAUGGUGUCAAAUUCGGCGAAACCUAAGCGCCCGCCCGGGCGUAUGGCAACGCGGAGCCAAGCUUCGGCGCCUGCGCCGAUGAAGGUGUAGUGACUAGACGGCACCCACCUAAGGCAAACGAUAUGGUGAAGGCAUAGUCAAGGGAGAGGCGAAAGUCACACAAACCGG [C82G A120U C150A C169A U176A], the reverse-splicing fitness was found to be 0.00432.

For the variant GUGCCUUGCGCCGGGAAACCACGCAAGGGAUGGUGUCAAAUUCGGCGAAACCUAAGCGCCCGCCCGGGCGUAUGGCAACGCGGAGCCAAGCUUCGGCGCCUGCGCCGAUGUAGGUGUAGAGACUAGACGGCACCCACCUAAGGCCAACGAUAUGGUGAAGGCAUAGUCAAGGGAGUGGCGAAAGUCACACAAACCGG [C82G A111U A145C C150A C169A], the reverse-splicing fitness was found to be 0.00868.

GUGCCUUGCGCCGGGAAACCACGCAAGGGAUGGUGUCAAAUUCGGCGAAACCUAAGCGCCCGCCCGGGCGUAUGGCAACGCAGAGCCAAGCUUCGGCGCCUGCGCCGAUGCAGGUGUAGGGACUAGACGGCACCCACCUAAGGCUAACGGUAUGGUGAAGGCAUAGUCAAGGGAGCGGCGAAAGUCACACAAACCGG [C82A A111C A120G A145U C150G C169A U176C]: the reverse-splicing fitness was determined as 0.00969. Regarding GUGCCUUGCGCCGGGAAACCACGCAAGGGAUGGUGUCAAAUUCGGCGAAACCUAAGCGCCCGCCCGGGCGUAUGGCAACGCGGAGCCAAGCUUCGGCGCCUGCGCCGAUGAAGGUGUAGCGACUAGACGGCACCCACCUAAGGCCAACGGUAUGGUGAAGGCAUAGUCGAGGGAGCGGCGAAAGUCACACAAACCGG [C82G A120C A145C C150G C169G U176C], the reverse-splicing fitness is 0.00954. For GUGCCUUGCGCCGGGAAACCACGCAAGGGAUGGUGUCAAAUUCGGCGAAACCUAAGCGCCCGCCCGGGCGUAUGGCAACGCUGAGCCAAGCUUCGGCGCCUGCGCCGAUGAAGGUGUAGUGACUAGACGGCACCCACCUAAGGCCAACGAUAUGGUGAAGGCAUAGUCAAGGGAGCGGCGAAAGUCACACAAACCGG [C82U A120U A145C C150A C169A U176C], the reverse-splicing fitness stood at 0.00171. With GUGCCUUGCGCCGGGAAACCACGCAAGGGAUGGUGUCAAAUUCGGCGAAACCUAAGCGCCCGCCCGGGCGUAUGGCAACGCCGAGCCAAGCUUCGGCGCCUGCGCCGAUGAAGGUGUAGUGACUAGACGGCACCCACCUAAGGCAAACGAUAUGGUGAAGGCAUAGUCGAGGGAGAGGCGAAAGUCACACAAACCGG [A120U C150A C169G U176A] the figure was 0.0106; with GUGCCUUGCGCCGGGAAACCACGCAAGGGAUGGUGUCAAAUUCGGCGAAACCUAAGCGCCCGCCCGGGCGUAUGGCAACGCGGAGCCAAGCUUCGGCGCCUGCGCCGAUGAAGGUGUAGUGACUAGACGGCACCCACCUAAGGCAAACGGUAUGGUGAAGGCAUAGUCCAGGGAGCGGCGAAAGUCACACAAACCGG [C82G A120U C150G U176C], 0.0103.

GUGCCUUGCGCCGGGAAACCACGCAAGGGAUGGUGUCAAAUUCGGCGAAACCUAAGCGCCCGCCCGGGCGUAUGGCAACGCAGAGCCAAGCUUCGGCGCCUGCGCCGAUGCAGGUGUAGUGACUAGACGGCACCCACCUAAGGCUAACGCUAUGGUGAAGGCAUAGUCUAGGGAGUGGCGAAAGUCACACAAACCGG [C82A A111C A120U A145U C169U]: the reverse-splicing fitness was 0.00402. As for GUGCCUUGCGCCGGGAAACCACGCAAGGGAUGGUGUCAAAUUCGGCGAAACCUAAGCGCCCGCCCGGGCGUAUGGCAACGCAGAGCCAAGCUUCGGCGCCUGCGCCGAUGUAGGUGUAGUGACUAGACGGCACCCACCUAAGGCGAACGGUAUGGUGAAGGCAUAGUCUAGGGAGCGGCGAAAGUCACACAAACCGG [C82A A111U A120U A145G C150G C169U U176C], the figure is 0.0089.

The record behind these values is the RNAGym collection of RNA variant scans (doi:10.1093/molbev/msab373).
